Biological target: T1, His-tagged VPS18 RING domain (residues 842–973) (human, UniProt Q9P253 842-973)
T1 construct: Vector pOPTnH; monomeric by SEC-MALS; also called VPS18 RING H6; VPS18H6; source: E. coli Rosetta2(DE3) pLysS, purified (Ni-NTA, SEC); not shown: LysHis6, C-terminal, kept
T1 sequence (looked up): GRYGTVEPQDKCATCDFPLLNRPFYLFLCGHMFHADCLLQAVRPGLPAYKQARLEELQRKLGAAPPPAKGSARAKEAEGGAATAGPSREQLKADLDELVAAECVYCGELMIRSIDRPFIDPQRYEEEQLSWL
Assay: SEC-MALS; Superdex 75 10/300, room temperature, 20 mM Tris (pH 7.5), 150 mM NaCl, 0.5 mM EDTA; complex formed from 0.48 mg/ml VPS41 RING and 0.68 mg/ml VPS18 RING H6 on ice for 15 min
Conditions: both partners purified

B1: tag-free VPS41 RING domain (residues 778–854) (domain or fragment, human, UniProt P49754 778-854, looked up)
chain: TQMKGVLVDEENICESCLSPILPSDAAKPFSVVVFHCRHMFHKECLPMPSMNSAAQFCNICSAKNRGPGSAILEMKK
notes: monomeric by SEC-MALS; also called untagged VPS41 RING; not shown: GST, N-terminal, cleaved
  stoichiometry N: 1
